Tests used:
[1] = test system: OMP-OV19 ovarian tumor cells; assay: OMP-OV19 ovarian tumor xenograft model, tumor volume; format: in vivo, NOD/SCID mice
Description: FIGS. 1A and 1B. Inhibition of ovarian tumor growth in vivo by a RSPO-LGR pathway inhibitor in combination with a chemotherapeutic agent. OMP-OV19 ovarian tumor cells were injected subcutaneously into NOD/SCID mice. FIG. 1A. Mice were treated with control antibody (-[…]-), paclitaxel (-▪-), a combination of paclitaxel plus anti-RSPO3 antibody 131R010 (also referred to as OMP-131R10) administered the same day (-▴-), or a combination of paclitaxel plus 131R010, wherein 131R010 was administered 2 days prior to paclitaxel (-▾-). Antibodies were dosed at 25 mg/kg and administered every other week. Paclitaxel was dosed at 20 mg/kg and administered every other week. Tumor volumes were measured on the indicated days post-treatment and shown as the mean±SEM. FIG. 1B. Tumor volumes of individual animals in the two combination treatment groups on Day 61.
OncoMed xenograft models described herein were established at OncoMed Pharmaceuticals from minimally passaged, patient-derived tumor specimens. The tumor specimens were examined by a pathologist and classified as a specific tumor type. […]
Single cell suspensions of xenograft OMP-OV19 ovarian tumor cells (1×10^5 cells) were injected subcutaneously into NOD/SCID mice. […] Tumor volumes were measured on the indicated days post-treatment and are shown as the mean±SEM in FIG. 1A.

OMP-C8 colon tumor cells = assay: OMP-C8 colorectal tumor xenograft model, tumor volume; format: in vivo, NOD/SCID mice; details: for tumor growth inhibition, staggered vs same-day dosing: OMP-131R010 25 mg/kg every other week, compared with dosing on the same day
Description: FIGS. 3A and 3B. Inhibition of colorectal tumor growth in vivo by a RSPO-LGR pathway inhibitor in combination with chemotherapeutic agents. OMP-C8 colorectal tumor cells were injected subcutaneously into NOD/SCID mice. FIG. 3A. Mice were treated with control antibody (-▪-), nab-paclitaxel (ABRAXANE) (-Δ-), a combination of nab-paclitaxel and anti-RSPO3 antibody 131R010 administered the same day (-[…]-), or a combination of nab-paclitaxel plus anti-RSPO3 antibody 131R010, wherein 131R010 was administered 2 days prior to nab-paclitaxel (-▾-). Antibodies were dosed every other week at 25 mg/kg. Nab-paclitaxel was dosed once a week at 30 mg/kg. Tumor volumes were measured on the indicated days post-treatment. FIG. 3B. Mice were treated with control antibody (-▪-), 5-FU and irinotecan (-◯-), a combination of 5-FU, irinotecan, and anti-RSPO3 antibody 131R010 administered the same day (-▴-), or a combination of 5-FU and irinotecan plus anti-RSPO3 antibody 131R010, wherein 131R010 was administered 2 days prior to 5-FU and irinotecan (-⋄-). Antibodies were dosed every other week at 25 mg/kg. 5-FU and irinotecan were dosed at 50 mg/kg and 5 mg/kg, respectively, once a week. Tumor volumes were measured on the indicated days post-treatment.
(§1) OncoMed xenograft models described herein were established at OncoMed Pharmaceuticals from minimally passaged, patient-derived tumor specimens. The tumor specimens were examined by a pathologist and classified as a specific tumor type. OncoMed relies on these classifications unless further analyses are done on any specific tumor and a reclassification is deemed necessary.
Single cell suspensions of xenograft OMP-C8 colon tumor cells (5×10^4 cells) were injected subcutaneously into NOD/SCID mice. OMP-C8 colon tumor cells comprise an inactivating mutation in the APC gene and express low levels of RSPO3 (data not shown). Tumors were allowed to grow 23 days until they reached an average volume of approximately 100 mm^3. Tumor-bearing mice were randomized into four groups (n=9 animals per group). […] Tumor volumes were measured on the indicated days post-treatment.

xenograft models = assay: Several xenograft models (summary of Examples 1-3); format: in vivo
[2] = test system: OMP-LU77 lung tumor cells; assay: OMP-LU77 lung tumor xenograft model, tumor volume; format: in vivo, NOD/SCID mice
Description: FIG. 2. Inhibition of lung tumor growth in vivo by a RSPO-LGR pathway inhibitor in combination with a chemotherapeutic agent. OMP-LU77 lung tumor cells were injected subcutaneously into NOD/SCID mice. Mice were treated with control antibody (-▪-), paclitaxel (-▴-), a combination of paclitaxel and anti-RSPO3 antibody 131R010 (also referred to as OMP-131R10) administered the same day (-▾-), or a combination of paclitaxel plus anti-RSPO3 antibody 131R010, wherein 131R010 was administered 2 days prior to paclitaxel (-[…]-). Antibodies were dosed every three weeks at 25 mg/kg. Taxol was dosed every three weeks at 20 mg/kg. Tumor volumes were measured on the indicated days post-treatment.
as §1
Single cell suspensions of xenograft OMP-LU77 lung tumor cells (5×10^4 cells) were injected subcutaneously into NOD/SCID mice. Tumors were allowed to grow 34 days until they reached an average volume of approximately 125 mm^3. […] Tumor volumes were measured on the indicated days post-treatment.

B1: OMP-131R010: anti-RSPO3 antibody; heavy chain variable region SEQ ID NO:38, light chain variable region SEQ ID NO:39; plasmids ATCC PTA-120420 and PTA-120421 (antibody, V domains shown)
VH: QVQLVQSGAEVKKPGASVKVSCKASGYTFTDYSIHWVRQAPGQGLEWIGYIYPSNGDSGYNQKFKNRVTMTRDTSTSTAYMELSRLRSEDTAVYYCATYFANNFDYWGQGTTLTVSS
VL: DIQMTQSPSSLSASVGDRVTITCKASQSVDYDGDSYMNWYQQKPGKAPKLLIYAASNLESGVPSRFSGSGSGTDFTLTISPVQAEDFATYYCQQSNEDPLTFGAGTKLELKR
notes: anti-RSPO3 antibody; plasmids ATCC PTA-120420 and PTA-120421
- tumor growth inhibition, staggered vs same-day dosing ([1]; OMP-131R010 25 mg/kg every other week, given two days prior to paclitaxel 20 mg/kg every other week, compared with dosing on the same day): greater tumor growth inhibition than dosing on the same day
- tumor size over the course of the treatment ([1]; staggered administration: OMP-131R010 25 mg/kg two days prior to paclitaxel 20 mg/kg, every other week): decreased tumor size
- tumor growth inhibition, staggered vs same-day dosing (OMP-C8 colon tumor cells; given two days prior to fluorouracil 50 mg/kg and irinotecan 5 mg/kg weekly): did not result in greater tumor growth inhibition than dosing on the same day
- tumor growth inhibition, staggered vs same-day dosing (OMP-C8 colon tumor cells; given two days prior to nab-paclitaxel 30 mg/kg weekly): greater tumor growth inhibition than dosing on the same day
- efficacy in inhibiting tumor growth, vs combination with a non-mitotic-inhibitor chemotherapeutic agent (OMP-C8 colon tumor cells; OMP-131R010 and nab-paclitaxel administered in a sequential manner, compared with OMP-131R010 plus fluorouracil and irinotecan): greater efficacy in inhibiting tumor growth
- inhibition of tumor growth, staggered vs co-administration (xenograft models; OMP-131R010 administered prior to a taxane, compared with co-administration): better at inhibiting tumor growth
- inhibition of tumor growth by the combination (xenograft models; combination of OMP-131R010 and a taxane): effective at inhibiting tumor growth
- tumor size over the course of the treatment (xenograft models; staggered administration of OMP-131R010 and taxane): decreased tumor size
- tumor growth inhibition, staggered vs same-day dosing ([2]; OMP-131R010 25 mg/kg given two days prior to paclitaxel 20 mg/kg, both once every three weeks, compared with dosing on the same day): greater tumor growth inhibition than dosing on the same day
- tumor size over the course of the treatment ([2]; staggered administration: OMP-131R010 25 mg/kg two days prior to paclitaxel 20 mg/kg, once every three weeks): decreased tumor size

Source: patent US20170266276A1, “Combination Therapy For Treatment of Cancer” (OncoMed Pharmaceuticals, Inc., priority 2014, published 2017)
